Test results reported in paper PMC3624071 (Biochemistry, 2013).

Key:
[1] = molecular target: T1, EutB subunit of ethanolamine ammonia-lyase (EAL) from the EALH6 construct (S. typhimurium, UniProt P19264 1-453); experiment: pull-down
T1 sequence: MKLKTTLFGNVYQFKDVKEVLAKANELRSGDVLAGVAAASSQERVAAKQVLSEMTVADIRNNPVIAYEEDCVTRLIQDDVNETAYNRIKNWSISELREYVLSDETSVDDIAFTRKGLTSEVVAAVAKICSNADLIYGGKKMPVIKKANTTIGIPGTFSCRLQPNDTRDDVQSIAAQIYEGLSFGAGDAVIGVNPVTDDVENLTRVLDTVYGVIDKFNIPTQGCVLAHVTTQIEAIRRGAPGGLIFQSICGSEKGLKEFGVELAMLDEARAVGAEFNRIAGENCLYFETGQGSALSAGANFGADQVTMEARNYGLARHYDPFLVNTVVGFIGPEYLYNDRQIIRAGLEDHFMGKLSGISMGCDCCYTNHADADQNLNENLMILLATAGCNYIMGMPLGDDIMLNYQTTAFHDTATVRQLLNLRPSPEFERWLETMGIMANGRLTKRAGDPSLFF

[2] = molecular target: T1, EutB subunit of ethanolamine …; experiment: pull-down; remark: listed apart in the source

B1: EutC subunit of ethanolamine ammonia-lyase (EAL) from the EALH6 construct (natural protein)
chain: MDQKQIEEIVRSVMASMGQDVPQPAAPSTQEGAKPQCAAPTVTESCALDLGSAEAKAWIGVENPHRADVLTELRRSTAARVCTGRAGPRPRTQALLRFLADHSRSKDTVLKEVPEEWVKAQGLLEVRSEISDKNLYLTRPDMGRRLSPEAIDALKSQCVMNPDVQVVVSDGLSTDAITANYEEILPPLLAGLKQAGLNVGTPFFVRYGRVKIEDQIGEILGAKVVILLVGERPGLGQSESLSCYAVYSPRVATTVEADRTCISNIHQGGTPPVEAAAVIVDLAKRMLEQKASGINMTR
- subunit molar ratio after elution with 250 mM imidazole [1]: 0.32 mol EutC per mol EutB
- stoichiometry N [2]: 1.01 mol EutC per mol EutB
